From paper PMC3350567 (Structure(London, England:1993), 2012) come the findings set out here.

B5: CCT4, subunit of bovine TRiC/CCT (bTRiC) (natural protein, Bos taurus, UniProt Q2T9X2 1-542, looked up)
chain: MPENVAPRTGPPAGAAGAAGGRGKSAYQDRDKPAQIRFSNISAAKAVADAIRTSLGPKGMDKMIQDGKGDVTITNDGATILKQMQVLHPAARMLVELSKAQDIEAGDGTTSVVIIAGSLLDSCTKLLQKGIHPTIISESFQKALEKGIEILTDMSRPEELSDRETLLNSAATSLNSKVVSQYSSLLSPMSVDAVMKVIDPATATSVDLRDIKIVKKLGGTIDDCELVEGLVLTQKVANSGITRVEKAKIGLIQFCLSAPKTDMDNQIVVSDYVQMDRVLREERAYILNLVKQIKKTGCNVLLIQKSILRDALSDLALHFLNKMKIMVVKDIEREDIEFICKTIGTKPVAHVDQFTADMLGSAELAEEVSLNGSGKLIKITGCASPGKTVTIVVRGSNKLVIEEAERSIHDALCVIRCLVKKRALIAGGGAPEIELALRLTEYSRTLSGMESYCIRAFADAMEVIPSTLAENAGLNPISTVTELRNRHAQGEKTTGINVRKGGISNILEEQVVQPLLVSVSALTLATETVRSILKIDDVVNTR

Common to all, as to test: cross-linking
Test [1] has as its target B5.
The target in test [2] is CCT4, subunit of yeast TRiC/CCT (yTRiC) (Saccharomyces cerevisiae, UniProt P39078 1-528).
Sequence of CCT4, subunit of yeast TRiC/CCT (yTRiC) (P39078 whole entry): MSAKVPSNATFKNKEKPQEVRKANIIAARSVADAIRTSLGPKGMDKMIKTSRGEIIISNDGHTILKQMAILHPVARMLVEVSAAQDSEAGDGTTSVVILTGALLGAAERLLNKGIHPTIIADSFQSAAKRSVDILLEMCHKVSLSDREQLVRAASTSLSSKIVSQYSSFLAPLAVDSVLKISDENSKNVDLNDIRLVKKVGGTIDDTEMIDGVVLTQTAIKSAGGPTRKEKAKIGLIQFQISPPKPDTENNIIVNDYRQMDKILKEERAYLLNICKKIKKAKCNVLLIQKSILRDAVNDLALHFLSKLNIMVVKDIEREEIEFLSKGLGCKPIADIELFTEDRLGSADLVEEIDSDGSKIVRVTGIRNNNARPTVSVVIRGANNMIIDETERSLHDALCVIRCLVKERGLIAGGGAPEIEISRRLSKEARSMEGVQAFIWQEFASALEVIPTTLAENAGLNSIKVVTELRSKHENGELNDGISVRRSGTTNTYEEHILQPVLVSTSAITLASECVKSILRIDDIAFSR
Test [3] concerns the target CCT1, subunit of bovine TRiC/CCT (bTRiC) (Bos taurus, UniProt Q32L40 1-556).
Test [4] has as its target T1, CCT8, subunit of bovine TRiC/CCT (bTRiC) (Bos taurus, UniProt Q3ZCI9 1-548).
T1 sequence (looked up): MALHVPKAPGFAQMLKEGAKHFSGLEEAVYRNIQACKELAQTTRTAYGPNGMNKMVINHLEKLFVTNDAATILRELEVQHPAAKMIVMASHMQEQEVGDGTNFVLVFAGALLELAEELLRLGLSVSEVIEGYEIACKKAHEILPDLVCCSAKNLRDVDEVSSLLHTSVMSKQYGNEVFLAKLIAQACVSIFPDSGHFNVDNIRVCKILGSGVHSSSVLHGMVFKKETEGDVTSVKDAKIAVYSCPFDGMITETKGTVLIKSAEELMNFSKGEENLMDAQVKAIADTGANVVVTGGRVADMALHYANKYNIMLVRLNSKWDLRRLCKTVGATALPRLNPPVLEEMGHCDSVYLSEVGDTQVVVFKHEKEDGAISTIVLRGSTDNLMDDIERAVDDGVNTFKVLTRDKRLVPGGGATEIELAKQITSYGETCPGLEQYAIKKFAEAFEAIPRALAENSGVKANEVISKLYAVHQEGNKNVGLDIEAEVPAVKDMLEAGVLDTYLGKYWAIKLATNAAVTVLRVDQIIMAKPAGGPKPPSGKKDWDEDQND

Sequence of CCT1, subunit of bovine TRiC/CCT (bTRiC) (Q32L40 whole entry): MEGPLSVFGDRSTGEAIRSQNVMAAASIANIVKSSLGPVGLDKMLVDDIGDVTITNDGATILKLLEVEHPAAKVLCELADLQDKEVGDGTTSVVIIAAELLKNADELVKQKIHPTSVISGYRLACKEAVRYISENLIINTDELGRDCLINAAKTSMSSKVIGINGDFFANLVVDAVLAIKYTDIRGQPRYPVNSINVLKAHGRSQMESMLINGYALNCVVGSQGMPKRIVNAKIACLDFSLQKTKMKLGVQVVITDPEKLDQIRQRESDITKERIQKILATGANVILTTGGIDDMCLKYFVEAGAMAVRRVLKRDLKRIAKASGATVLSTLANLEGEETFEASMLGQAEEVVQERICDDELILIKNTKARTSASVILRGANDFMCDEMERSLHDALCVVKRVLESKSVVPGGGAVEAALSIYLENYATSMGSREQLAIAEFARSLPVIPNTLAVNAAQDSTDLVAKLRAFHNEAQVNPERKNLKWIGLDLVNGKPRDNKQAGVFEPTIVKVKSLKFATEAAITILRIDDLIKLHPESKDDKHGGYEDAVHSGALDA

B1: CCT2, subunit of bovine TRiC/CCT (bTRiC) (natural protein, Bos taurus, UniProt Q3ZBH0 1-535, looked up)
chain: MASLSLAPVNIFKAGADEERAETARLSSFIGAIAIGDLVKSTLGPKGMDKILLSSGRDASLMVTNDGATILKNIGVDNPAAKVLVDMSRVQDDEVGDGTTSVTVLAAELLREAESLIAKKIHPQTIIAGWREATKAARQALLNSAVDHGSDEVKFRQDLMNIAGTTLSSKLLTHHKDHFTKLAVEAVLRLKGSGNLEAIHVIKKLGGSLADSYLDEGFLLDKKIGVNQPKRIENAKILIANTGMDTDKIKIFGSRVRVDSTAKVAEIEHAEKEKMKEKVERILKHGINCFINRQLIYNYPEQLFGAAGVMAIEHADFVGVERLALVTGGEIASTFDHPELVKLGSCKLIEEVMIGEDKLIHFSGVALGEACTIVLRGATQQILDEAERSLHDALCVLAQTVKDSRTVYGGGCSEMLMAHAVTQLASRTPGKEAVAMESYAKALRMLPTIIADNAGYDSADLVAQLRAAHSEGKTTAGLDMKEGTIGDMSVLGITESFQVKRQVLLSAAEAAEVILRVDNIIKAAPRKRVPDHHPC
On to B1, for which, in test [1], the binding result is listed as “binds”.

B2: CCT2, subunit of yeast TRiC/CCT (yTRiC) (natural protein, Saccharomyces cerevisiae, UniProt P39076 1-527, looked up)
chain: MSVQIFGDQVTEERAENARLSAFVGAIAVGDLVKSTLGPKGMDKLLQSASSNTCMVTNDGATILKSIPLDNPAAKVLVNISKVQDDEVGDGTTSVTVLSAELLREAEKLIDQSKIHPQTIIEGYRLASAAALDALTKAAVDNSHDKTMFREDLIHIAKTTLSSKILSQDKDHFAELATNAILRLKGSTNLEHIQIIKILGGKLSDSFLDEGFILAKKFGNNQPKRIENAKILIANTTLDTDKVKIFGTKFKVDSTAKLAQLEKAEREKMKNKIAKISKFGINTFINRQLIYDYPEQLFTDLGINSIEHADFEGVERLALVTGGEVVSTFDEPSKCKLGECDVIEEIMLGEQPFLKFSGCKAGEACTIVLRGATDQTLDEAERSLHDALSVLSQTTKETRTVLGGGCAEMVMSKAVDTEAQNIDGKKSLAVEAFARALRQLPTILADNAGFDSSELVSKLRSSIYNGISTSGLDLNNGTIADMRQLGIVESYKLKRAVVSSASEAAEVLLRVDNIIRARPRTANRQHM
On to B2, for which the binding result in test [2] was “binds”.

B3: CCT3, subunit of bovine TRiC/CCT (bTRiC) (natural protein, Bos taurus, UniProt Q3T0K2 1-545, looked up)
chain: MMGHRPVLVLSQNTKRESGRKVQSGNINAAKTIADIIRTCLGPKSMMKMLLDPMGGIVMTNDGNAILREIQVQHPAAKSMIEISRTQDEEVGDGTTSVIILAGEMLSVAEHFLEQQMHPTVVISAYRKALDDMISTLKKISIPVDTSNRDTMLNIINSSITTKVISRWSSLACNIALDAVKTVQFEENGRKEIDIKKYARVEKIPGGIIEDSCVLRGVMINKDVTHPRMRRYIKNPRIVLLDSSLEYKKGESQTDIEITREEDFTRILQMEEEYIQQLCEDIIQLKPDVVITEKGISDLAQHYLMRANITAIRRVRKTDNNRIARACGARIVSRPEELREEDVGTGAGLLEIKKIGDEYFTFITECKDPKACTILLRGASKEILSEVERNLQDAMQVCRNVLLDPQLVPGGGASEMAVAHALTEKSKAMTGVEQWPYRAVAQALEVIPRTLIQNCGASTIRLLTSLRAKHTQENCETWGVNGETGTLVDMKELGIWEPLAVKLQTYKTAVETAVLLLRIDDIVSGHKKKGDDQSRQGGAPDAGQE
On to B3, for which the binding result in test [3] is listed as “binds”.

B4: CCT7, subunit of bovine TRiC/CCT (bTRiC) (natural protein, Bos taurus, UniProt Q2NKZ1 1-543, looked up)
chain: MMPTPVILLKEGTDSSQGIPQLVSNISACQVIAEAVRTTLGPRGMDKLIVDGRGKATISNDGATILKLLDVVHPAAKTLVDIAKSQDAEVGDGTTSVTLLAAEFLKQVKPYVEEGLHPQIIIRAFRTATQLAVNKIKEIAVTVKKEDKVEQRKLLEKCAMTALSSKLISQQKAFFAKMVVDAVMMLDDLLQLKMIGIKKVQGGALEESQLVAGVAFKKTFSYAGFEMQPKKYHNPMIALLNVELELKAEKDNAEIRVHTVEDYQAIVDAEWNILYDKLEKIHHSGAKVVLSKLPIGDVATQYFADRDMFCAGRVPEEDLKRTMMACGGSIQTSVNALSSDVLGRCQVFEETQIGGERYNFFTGCPKAKTCTIILRGGAEQFMEETERSLHDAIMIVRRAIKNDSVVAGGGAIEMELSKYLRDYSRTIPGKQQLLIGAYAKALEIIPRQLCDNAGFDATNILNKLRARHAQGGMWYGVDINTEDIADNFEAFVWEPAMVRINALTAASEAACLIVSVDETIKNPRSTVDASPAAGRGRGRGRLH
In the case of B4, the binding result in test [4] was “binds”.
Regarding B5, in test [3], the binding result was “binds”.
